Test results reported in patent publication US20160002357A1 (Pfizer, published 2016).

Tests used:
[1] = target: T1, cynomolgus monkey P-cadherin ECD (cynomolgus monkey); test: SPR
T1 construct: extracellular domain; also called cyno P-cadherin ECD; Cyno P-cadherin

[2] = target: human P-cadherin expressed on the cell surface (human, UniProt P22223 108-829); test: cell-based or functional assay
human P-cadherin expressed on the cell surface, sequence (P22223 108-829): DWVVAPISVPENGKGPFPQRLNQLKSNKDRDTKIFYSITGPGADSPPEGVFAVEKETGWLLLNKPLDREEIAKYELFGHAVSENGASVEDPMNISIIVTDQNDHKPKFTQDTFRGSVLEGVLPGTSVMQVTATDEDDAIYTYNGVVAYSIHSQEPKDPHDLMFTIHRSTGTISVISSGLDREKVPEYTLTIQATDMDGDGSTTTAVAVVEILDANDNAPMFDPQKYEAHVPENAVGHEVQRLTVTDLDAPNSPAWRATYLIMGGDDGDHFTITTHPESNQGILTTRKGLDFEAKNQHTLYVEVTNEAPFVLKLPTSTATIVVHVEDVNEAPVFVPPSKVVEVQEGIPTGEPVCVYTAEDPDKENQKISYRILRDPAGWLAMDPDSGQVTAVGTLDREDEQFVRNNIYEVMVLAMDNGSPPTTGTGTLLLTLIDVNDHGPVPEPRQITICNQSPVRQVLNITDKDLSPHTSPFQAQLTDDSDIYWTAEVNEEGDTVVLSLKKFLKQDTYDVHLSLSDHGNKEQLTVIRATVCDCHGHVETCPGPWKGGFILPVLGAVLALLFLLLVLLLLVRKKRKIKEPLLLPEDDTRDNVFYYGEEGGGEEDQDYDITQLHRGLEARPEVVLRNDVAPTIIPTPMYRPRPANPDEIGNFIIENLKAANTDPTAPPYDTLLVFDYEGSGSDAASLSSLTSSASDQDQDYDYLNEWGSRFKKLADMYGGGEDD

B1: LP-DART #1 (bispecific antibody)
chain 1: QAVVTQEPSLTVSPGGTVTLTCRSSTGAVTTSNYANWVQQKPGQAPRGLIGGTNKRAPWTPARFSGSLLGGKAALTITGAQAEDEADYYCALWYSNLWVFGGGTKLTVLGGGGSGGGGEVQLVQSGAEVKKPGASVKVSCKASGYTFTSYGISWVRQAPGQGLEWMGWISAYNGNTNYAQKLQGRVTMTTDTSTSTAYMELRSLRSDDTAVYYCATIDTASAFDIWGQGTMVTVSSGCPPCPAPEAAGAPSVFLFPPKPKDTLMISRTPEVTCVVVDVSHEDPEVKFNWYVDGVEVHNAKTKPREEQYNSTYRVVSVLTVLHQDWLNGKEYKCKVSNKALPAPIEKTISKAKGQPREPQVCTLPPSREEMTKNQVSLWCLVKGFYPSDIAVEWESNGQPENNYKTTPPVLDSDGSFFLYSKLTVDKSRWQQGNVFSCSVMHEALHNHYTQKSLSLSPG
chain 2: QSVLTQPPSVSAAPGQKVTISCSGSSSNIGNNYVSWYQQLPGTAPKLLIYDNNKRPSGIPDRFSGSKSGTSATLGITGLQTGDEADYYCGTWDSSLSAVVFGGGTKLTVLGGGSGGGGEVQLVESGGGLVQPGGSLRLSCAASGFTFNTYAMNWVRQAPGKGLEWVARIRSKYNNYATYYADSVKDRFTISRDDSKNSLYLQMNSLKTEDTAVYYCVRHGNFGNSYVSWFAYWGQGTLVTVSSGCPPCPAPEAAGAPSVFLFPPKPKDTLMISRTPEVTCVVVDVSHEDPEVKFNWYVDGVEVHNAKTKPREEQYNSTYRVVSVLTVLHQDWLNGKEYKCKVSNKALPAPIEKTISKAKGQPREPQVYTLPPCREEMTKNQVSLSCAVKGFYPSDIAVEWESNGQPENNYKTTPPVLDSDGSFFLVSKLTVDKSRWQQGNVFSCSVMHEALHNHYTQKSLSLSPG
notes: also called P-cadherin LP-DART construct #1 (P-CAD 35, CD3-2)
Kd [1]: 108 nM
T cell Cytotoxicity [2]: 0.79 nM

B2: LP-DART #6 (bispecific antibody)
chain 1: QAVVTQEPSLTVSPGGTVTLTCRSSTGAVTTSNYANWVQQKPGQAPRGLIGGTNKRAPWTPARFSGSLLGGKAALTITGAQAEDEADYYCALWYSNLWVFGGGTKLTVLGGGGSGGGGEVQLVQSGAEVKKPGASVKVSCKASGYTFTSYGISWVRQAPGQGLEWMGWISAYNGNTNYAQKLQGRVTMTTDTSTSTAYMELRSLRSDDTAVYYCATIDTASAFDIWGQGTMVTVSSGGTGGCPPCPAPEAAGAPSVFLFPPKPKDTLMISRTPEVTCVVVDVSHEDPEVKFNWYVDGVEVHNAKTKPREEQYNSTYRVVSVLTVLHQDWLNGKEYKCKVSNKALPAPIEKTISKAKGQPREPQVYTLPPCREEMTKNQVSLSCAVKGFYPSDIAVEWESNGQPENNYKTTPPVLDSDGSFFLVSKLTVDKSRWQQGNVFSCSVMHEALHNHYTQKSLSLSPG
chain 2: QSVLTQPPSVSAAPGQKVTISCSGSSSNIGNNYVSWYQQLPGTAPKLLIYDNNKRPSGIPDRFSGSKSGTSATLGITGLQTGDEADYYCGTWDSSLSAVVFGGGTKLTVLGGGSGGGGEVQLVESGGGLVQPGGSLRLSCAASGFTFNTYAMNWVRQAPGKGLEWVARIRSKYNNYATYYADSVKDRFTISRDDSKNSLYLQMNSLKTEDTAVYYCVRHGNFGNSYVSWFAYWGQGTLVTVSSGGTGGCPPCPAPEAAGAPSVFLFPPKPKDTLMISRTPEVTCVVVDVSHEDPEVKFNWYVDGVEVHNAKTKPREEQYNSTYRVVSVLTVLHQDWLNGKEYKCKVSNKALPAPIEKTISKAKGQPREPQVCTLPPSREEMTKNQVSLWCLVKGFYPSDIAVEWESNGQPENNYKTTPPVLDSDGSFFLYSKLTVDKSRWQQGNVFSCSVMHEALHNHYTQKSLSLSPG
notes: also called P-cadherin LP-DART construct #6 (P-CAD 35, CD3-2)
Kd [1]: 86.6 nM
T cell Cytotoxicity [2]: 1.29 nM

B3: LP-DART #2 (bispecific antibody)
chain 1: QAVVTQEPSLTVSPGGTVTLTCRSSTGAVTTSNYANWVQQKPGQAPRGLIGGTNKRAPWTPARFSGSLLGGKAALTITGAQAEDEADYYCALWYSNLWVFGGGTKLTVLGGGGSGGGGEVQLVQSGAEVKKPGASVKVSCKASGYTFTSYGISWVRQAPGQGLEWMGWISAYNGNTNYAQKLQGRVTMTTDTSTSTAYMELRSLRSDDTAVYYCATIDTASAFDIWGQGTMVTVSSGGTGGCPPCPAPEAAGAPSVFLFPPKPKDTLMISRTPEVTCVVVDVSHEDPEVKFNWYVDGVEVHNAKTKPREEQYNSTYRVVSVLTVLHQDWLNGKEYKCKVSNKALPAPIEKTISKAKGQPREPQVCTLPPSREEMTKNQVSLWCLVKGFYPSDIAVEWESNGQPENNYKTTPPVLDSDGSFFLYSKLTVDKSRWQQGNVFSCSVMHEALHNHYTQKSLSLSPG
chain 2: QSVLTQPPSVSAAPGQKVTISCSGSSSNIGNNYVSWYQQLPGTAPKLLIYDNNKRPSGIPDRFSGSKSGTSATLGITGLQTGDEADYYCGTWDSSLSAVVFGGGTKLTVLGGGSGGGGEVQLVESGGGLVQPGGSLRLSCAASGFTFNTYAMNWVRQAPGKGLEWVARIRSKYNNYATYYADSVKDRFTISRDDSKNSLYLQMNSLKTEDTAVYYCVRHGNFGNSYVSWFAYWGQGTLVTVSSGGTGGCPPCPAPEAAGAPSVFLFPPKPKDTLMISRTPEVTCVVVDVSHEDPEVKFNWYVDGVEVHNAKTKPREEQYNSTYRVVSVLTVLHQDWLNGKEYKCKVSNKALPAPIEKTISKAKGQPREPQVYTLPPCREEMTKNQVSLSCAVKGFYPSDIAVEWESNGQPENNYKTTPPVLDSDGSFFLVSKLTVDKSRWQQGNVFSCSVMHEALHNHYTQKSLSLSPG
notes: also called P-cadherin LP-DART construct #2 (P-CAD 35, CD3-2)
Kd [1]: 73.5 nM
T cell Cytotoxicity [2]: 0.92 nM

B4: LP-DART #7 (bispecific antibody)
chain 1: QAVVTQEPSLTVSPGGTVTLTCRSSTGAVTTSNYANWVQQKPGQAPRGLIGGTNKRAPWTPARFSGSLLGGKAALTITGAQAEDEADYYCALWYSNLWVFGGGTKLTVLGGGGSGGGGEVQLVQSGAEVKKPGASVKVSCKASGYTFTSYGISWVRQAPGQGLEWMGWISAYNGNTNYAQKLQGRVTMTTDTSTSTAYMELRSLRSDDTAVYYCATIDTASAFDIWGQGTMVTVSSGEPKSSDKTHTCPPCPAPEAAGAPSVFLFPPKPKDTLMISRTPEVTCVVVDVSHEDPEVKFNWYVDGVEVHNAKTKPREEQYNSTYRVVSVLTVLHQDWLNGKEYKCKVSNKALPAPIEKTISKAKGQPREPQVYTLPPCREEMTKNQVSLSCAVKGFYPSDIAVEWESNGQPENNYKTTPPVLDSDGSFFLVSKLTVDKSRWQQGNVFSCSVMHEALHNHYTQKSLSLSPG
chain 2: QSVLTQPPSVSAAPGQKVTISCSGSSSNIGNNYVSWYQQLPGTAPKLLIYDNNKRPSGIPDRFSGSKSGTSATLGITGLQTGDEADYYCGTWDSSLSAVVFGGGTKLTVLGGGSGGGGEVQLVESGGGLVQPGGSLRLSCAASGFTFNTYAMNWVRQAPGKGLEWVARIRSKYNNYATYYADSVKDRFTISRDDSKNSLYLQMNSLKTEDTAVYYCVRHGNFGNSYVSWFAYWGQGTLVTVSSGEPKSSDKTHTCPPCPAPEAAGAPSVFLFPPKPKDTLMISRTPEVTCVVVDVSHEDPEVKFNWYVDGVEVHNAKTKPREEQYNSTYRVVSVLTVLHQDWLNGKEYKCKVSNKALPAPIEKTISKAKGQPREPQVCTLPPSREEMTKNQVSLWCLVKGFYPSDIAVEWESNGQPENNYKTTPPVLDSDGSFFLYSKLTVDKSRWQQGNVFSCSVMHEALHNHYTQKSLSLSPG
notes: also called P-cadherin LP-DART construct #7 (P-CAD 35, CD3-2)
Kd [1]: 96.6 nM
T cell Cytotoxicity [2]: 2.85 nM

B5: LP-DART #3 (bispecific antibody)
chain 1: QAVVTQEPSLTVSPGGTVTLTCRSSTGAVTTSNYANWVQQKPGQAPRGLIGGTNKRAPWTPARFSGSLLGGKAALTITGAQAEDEADYYCALWYSNLWVFGGGTKLTVLGGGGSGGGGEVQLVQSGAEVKKPGASVKVSCKASGYTFTSYGISWVRQAPGQGLEWMGWISAYNGNTNYAQKLQGRVTMTTDTSTSTAYMELRSLRSDDTAVYYCATIDTASAFDIWGQGTMVTVSSGEPKSSDKTHTCPPCPAPEAAGAPSVFLFPPKPKDTLMISRTPEVTCVVVDVSHEDPEVKFNWYVDGVEVHNAKTKPREEQYNSTYRVVSVLTVLHQDWLNGKEYKCKVSNKALPAPIEKTISKAKGQPREPQVCTLPPSREEMTKNQVSLWCLVKGFYPSDIAVEWESNGQPENNYKTTPPVLDSDGSFFLYSKLTVDKSRWQQGNVFSCSVMHEALHNHYTQKSLSLSPG
chain 2: QSVLTQPPSVSAAPGQKVTISCSGSSSNIGNNYVSWYQQLPGTAPKLLIYDNNKRPSGIPDRFSGSKSGTSATLGITGLQTGDEADYYCGTWDSSLSAVVFGGGTKLTVLGGGSGGGGEVQLVESGGGLVQPGGSLRLSCAASGFTFNTYAMNWVRQAPGKGLEWVARIRSKYNNYATYYADSVKDRFTISRDDSKNSLYLQMNSLKTEDTAVYYCVRHGNFGNSYVSWFAYWGQGTLVTVSSGEPKSSDKTHTCPPCPAPEAAGAPSVFLFPPKPKDTLMISRTPEVTCVVVDVSHEDPEVKFNWYVDGVEVHNAKTKPREEQYNSTYRVVSVLTVLHQDWLNGKEYKCKVSNKALPAPIEKTISKAKGQPREPQVYTLPPCREEMTKNQVSLSCAVKGFYPSDIAVEWESNGQPENNYKTTPPVLDSDGSFFLVSKLTVDKSRWQQGNVFSCSVMHEALHNHYTQKSLSLSPG
notes: also called P-cadherin LP-DART construct #3 (P-CAD 35, CD3-2)
Kd [1]: 85.7 nM
T cell Cytotoxicity [2]: 1.6 nM

B6: LP-DART #8 (bispecific antibody)
chain 1: QAVVTQEPSLTVSPGGTVTLTCRSSTGAVTTSNYANWVQQKPGQAPRGLIGGTNKRAPWTPARFSGSLLGGKAALTITGAQAEDEADYYCALWYSNLWVFGGGTKLTVLGGGGSGGGGEVQLVQSGAEVKKPGASVKVSCKASGYTFTSYGISWVRQAPGQGLEWMGWISAYNGNTNYAQKLQGRVTMTTDTSTSTAYMELRSLRSDDTAVYYCATIDTASAFDIWGQGTMVTVSSGGTGGGEPKSSDKTHTCPPCPAPEAAGAPSVFLFPPKPKDTLMISRTPEVTCVVVDVSHEDPEVKFNWYVDGVEVHNAKTKPREEQYNSTYRVVSVLTVLHQDWLNGKEYKCKVSNKALPAPIEKTISKAKGQPREPQVYTLPPCREEMTKNQVSLSCAVKGFYPSDIAVEWESNGQPENNYKTTPPVLDSDGSFFLVSKLTVDKSRWQQGNVFSCSVMHEALHNHYTQKSLSLSPG
chain 2: QSVLTQPPSVSAAPGQKVTISCSGSSSNIGNNYVSWYQQLPGTAPKLLIYDNNKRPSGIPDRFSGSKSGTSATLGITGLQTGDEADYYCGTWDSSLSAVVFGGGTKLTVLGGGSGGGGEVQLVESGGGLVQPGGSLRLSCAASGFTFNTYAMNWVRQAPGKGLEWVARIRSKYNNYATYYADSVKDRFTISRDDSKNSLYLQMNSLKTEDTAVYYCVRHGNFGNSYVSWFAYWGQGTLVTVSSGGTGGGEPKSSDKTHTCPPCPAPEAAGAPSVFLFPPKPKDTLMISRTPEVTCVVVDVSHEDPEVKFNWYVDGVEVHNAKTKPREEQYNSTYRVVSVLTVLHQDWLNGKEYKCKVSNKALPAPIEKTISKAKGQPREPQVCTLPPSREEMTKNQVSLWCLVKGFYPSDIAVEWESNGQPENNYKTTPPVLDSDGSFFLYSKLTVDKSRWQQGNVFSCSVMHEALHNHYTQKSLSLSPG
notes: also called P-cadherin LP-DART construct #8 (P-CAD 35, CD3-2)
Kd [1]: 104 nM
T cell Cytotoxicity [2]: 2.27 nM
